Measurements: PMC6315854, “Cloning, Expression and Characterization of a Novel Cold-adapted β-galactosidase from the Deep-sea Bacterium Alteromonas sp. ML52” (Marine Drugs, 2018)

Test system: O=[N+]([O-])c1ccccc1O[C@@H]1O[C@H](CO)[C@H](O)[C@H](O)[C@H]1O
Experiment: purified protein
Settings: 35 °C, 50 mM sodium phosphate pH 8, ONPG 0.1–5 mM

Q: What does the source list for “recombinant Gal (β-galactosidase) (Alteromonas sp.)”?
A: Km: 140 µM; Vmax: 465 µmol/min/mg; kcat: 3690 s⁻¹; kcat/Km: 2.63e+07 M⁻¹ s⁻¹
